# Assay results reported in the DeepSol protein solubility set.
# Assay: soluble on expression in E. coli; label from the status in PepcDB or PDB records
row,Sequence,soluble on expression in E. coli
1,MSLAEFIYTMRKVRKAHGDKVILDDVNLNFLPGAKIGVVGPNGAGKSSVLRIMAGLDTPNNGDAYLAPGASVGILQQEPHLDETKTVRENVEEGVPIKGKLNRYNEVAELMATDYSDELMEEMGRLQEELDAADAWDIDSQLEQAMDALRCPPPDEPVTHLSGGERRRVALCKLLLSKPDLLLLDEPTNHLDAESVLWLEQHLASYKGAILAVTHDRYFLDNVAEWILELDRGRAYPYEGNYSTYLEKKAERLEVQGKKDQKLQKRLKEELAWVRSGAKARQAKNKARLGRYEEMAAEAEKSRKLDFEEIQIPTPPRLGNVVVEVEHLDKGFEGRTLIKDLSFTLPRNGIVGVIGPNGVGKTTLFKTIVGLEQPDSGVVRVGDTVKLSYVDQNRAGIDPKKNVWEVVSDGLDYIEVGQNEIPSRAYVSAFGFKGPDQQKPAGVLSGGERNRLNLALTLKEGGNLILLDEPTNDLDVETLSSLEHALEQFPGCAVVISHDRWFLDRTCTHILAWEGDDDNEAKWFWFEGEGHHHHHH,soluble
2,MMFVKNNFNTNNFDAELVEAIGNRLENNQFSDAILAGTKYLTTLLREKGQCEGDGAQLVGTVLGGQSPRIQINSLQSVSEQDEQRGFEALLRGYYQCIRNPRTHDNFPDTEDSCMRILIMLDTFIKYLKRDVAEFDYTAILERIYEVHFVNNSDYAEALISQIPEKKLLDFFQSLISRFNERPTKEIDSIFKAINQRFSGEEEKAAMRLLGDELRKASNNVEFANVFRIIKPSAWRNLPDDVLIRMENIIIEECKKGYLDFYSDATKGAIGTWGNTFGSKFKRRGDLGDALIGLLYDSWYTQNYVAKYYVFSIPSIITDDVKVKELADALAYATIVNGAKLLRTKLIDACKNYPDKLKEHLRDAVQQRMDSDKKYAEELLGQIS,not soluble
3,MRDNPLVSILIPTFNRPMLLEKSLRSAVNQTYKNIEIVICDDSTNYDSKTVVESYMKRYKNIRYYFNNGPLGNFGLNNVKKCYELSKGEYINYLNDDDMFHKSKIMRMIRYFQNYKKITLVTSHRSVIDKNDNILPDINATKRIRYLNRPVSGRIIAKLMFNLGNFIGEPTTVLFKKSDVKNFGSLNGKQYYSLIDAATWFELLSKGYCVYIADTLSYFRIHEGQNTNRPEVSGRFLLEWKDLNDYGYRKKIIDSEFYKRFLLSFKKEYEKPKLEHHHHHH,not soluble
4,MNLSEITQQMGEVGKTLSDSVPELLNSTDLVNDPEKMLELQFAVQQYSAYVNVESGMLKTIKDLVSTISNRSF,not soluble
5,MSASDGDNTEQTGRRRSFGNLFGSTRVPFSSLSDIYANQSTFAKDQGVQSEVDVADAWSQHHAPTRDQYVQSEIITAVETSSQYEVQTKDKEVEAICSTANRTTQTCHATNIAGTNSESCLIEKLANSLLEHLQARRPIKARTAFPIYLQQPEQLQLLPPPDQQSAPVPPSHPLQNSEARQEDLEQTEMPQASQQIGINETSLNDADSQSFFHSRLHQTEQREETNSNSMQSIHSQVNPPASQETMESHFPEMINSRKSDHQLCFSFKKVTSERCSSFPTRHDGSSHFARSSSGLLGSMSSQQQRSQFPVPQEEGNQAEDMRGAQQPHNARNLFGGVGGMFPSMPNSSGGQGPDWQNNHFIRPFGQPAAGMMSWHPGMMPSHMNNSAAPSSFFESPFMPPYDVFMQQQMLLHSQYAAWEQQRNHAMMYQNAQNQNSANVNPSFADIPSAAPISQPEVNVNENQIVPEETERLEADLEIENTVDAIIVTDVGSVNQAVSGVNSIARETEEINNQDVRNETPVEDFGSIISAISITENRNESPMPSASETDDTSPHTSRSRYGSSVAISTGMKRARLEPSQSPPGSSRKNSRNETTKKNSKTPSSTIDKEPTSSKRTRKAPARYEAEWNAEQGGDTRRAKRWSKDFYKAPSKK,not soluble
6,MTLMNTENEPTGMLTIRVSAMPKDANSAYDIFGGWVMAQMDMAAGIRSAERARGRTVTAAVREMAFARPVKIGDTLCVYTDITRVGRTSITLRVEAWAKRYLSDKRDLVTHAEFIMVALDADGKPTPAPQEDLEHHHHHH,not soluble
7,MTITNSKAEAWELIGNQFWTIGRVAARPSDRENDIFLENIVPGSTVAVIGASTRFLIEKALERGASVTVFDFSQRMCDDLAEALADRCVTIDLLDITAEIPKELAGHFDFVLNDRLINRFTTEEARRACLGMLSLVGSGTVRASVKLGFYDIDLKLIEYGEQSGTLAKFFDPSDKTFHFREAGDVLDRALVPHGLIDKPTLLEWYRRRGKETRFDDEDVRAL,not soluble
8,MSPLASRALSFLGALSLLTFAATPVLAESTPTAAPPQFAVESPKAASSLLLSVAHAGKRLVAVGDRGHILLSDDDGKTWTQAKVPTRQLLTSVFFVNERKGWAVGHDAQILVSDDAGSTWARQFEDLGREAPLLDIWFADEQHGLAVGAYGALLETRDGGQHWEDVSERLDNEDQFHLNAIAAVKDNGLLVVGEAGSLFRSKDWGATWEKLEGPYEGSLFGAIGTADAGGVLVYGLRGHLFRSADFGDSWEEIPLKAASGDLEFGLSDGALLADGRIVVVGHGGSVLESTDGGRSFSVFNRPDRLSLAGVSATGDGHLILVGQGGVHLAAANGAALEQQQLEHHHHHH,not soluble
9,MGSDKIHHHHHHMSDTLTDSRIVYFYEAVRCGTIRAAADWLDVAPSAVSRQIGLLEKELDATLVERHARGVTPTDAGRCVIEYFREQLAHRDDLISRLQELRGLKTGQVSLVLGEGFVSDLLAGPMQQFCRQFPGIRVNLDVGSTNDVIRKISNDEGEIGLVYNPPAEPKLVSRASKRQPMMAIVGPDFPRRSHKVLTVQQLATYPMAATHPSYGTRQMMEAVEYAERVRLAPIITTNSFAILKEFVKSGLGISVMPAFAVAAELQAKELFAIEIAHPILENAEAHMVTRVGRKLSVAANKMLQMMTGQMRAFR,not soluble
10,MGSDKIHHHHHHMASLDVFHQDAFTTIQLTTAVDKYPFQPTGLGDLNIFEPDPIRTTALAVEQRQGKLVVVPFSERGQEGTQRTTEQREARYFKVPRIMHADTLYANEIQDIRAFGTESELMQVQAEVARRLNGPTGLTSNIEYTWEYHRLAAVQGMLLDADGTVKYNWFDEFGITPPSLVPFNLSAQTPNSLRPIVNGIRRTMARKAQGAFLPTTKIFALCGDLFYDELTNHTDVIRTYLNWSAASELRDDSQGAAFEAFPFAGVTWSNYRGSDDNTTLKIPDDEVHFFPVGAPGVFRVAYAPGESFEWVNTPGKPIYVIPIYDRDRNSFWKMEAYSYPLHICTRPEVLQKGHAGA,not soluble
11,MIGLFNDCFPPIMDGVSLTTQNYAYWLHRKAGNVCVVTPKSPDARDAEEYPVYRYSSVPIPMRKPYRLGFPRIDWPFHERISRLSFELVHAHCPFSSGALAMQIAREQHVPIVATFHSKYRADFERAIPSRLLVNYLIRKVIRFYEAADEVWIPQAAVEETLREYGYKGRIEVVDNGNDFAGTPFLQSVRQEARRTLGIRSGEFMFLFVGQHIWEKNLGFLLDSLVRLSDIPFRMYFVGSGYASHELKQKVVELGLASKVSFVGSIVEREILKRYYVAADLFLFPSLYDNAPLVIREAAALGTPSVLIRDSTASEIISDSVNGFLSPNSTEAYSNRIREILCSTAIIKQVGEEASRTIARSWEDVAGEVYDRYNRLIKRNGNKLEHHHHHH,soluble
12,MTPYAFTDPRKSELYVVEGDSAGGSAKSGRDSMFQAILPLRGKIINVEKARIDRVLKNTEVQAIITALGTGIHDEFDIGKLRYHKIVLMADADVDGQHISTLLLTLLFRFMRPLIENGHVFLAQPPLYKLKWQRSDPEFAYSDRERDGLLEAGLKAGKKINKEDGIQRYKGLGEMDAKELWETTMDPSVRVLRQVTLDDAAAADELFSILMGEDVDARRSFITRNAKDVRFLDVKLAAALEHHHHHH,soluble
13,MKPWLITPERLTSEQIGLLDHFFDRGLERLHLRLPSAGEEDYSQVIEAVAACYRRRIVVHDHPRLVGRYGLCGLHLPERVWKGMTDRPQLPDGCTVSASCHAIEDIESFPFRLDYCFLSPVFDSLCKVGYAGRFSPDS,not soluble
14,GVSIRSMKNFYDWIKEFVRDQGEFIAQQSGWLELERSSYAKLIAQTISHVLNGGSLLVSADSSRHWFLNYILSNLNPKDLKERPLLSVIDFNASSFYPKNDANLSLATIEMTYQNPMFWHVGKIENEGLKTILLSKIPSFLWLFEELKEDCLLLKEHDSLLDYKLLQLFKLFENALFSVLYNKVTL,soluble
15,MGHHHHHHSHMDKNVISVKIMEEKRDESTGVIYRKRIAICQNVVPEILRKVSILKVPNIQLEEESWLNPRERNMAIRSHCLTWTQYASMKEESVFRESMENPNWTEFIQRGRISITGVGFLNCVLETFASTFLRQGAQKGIRIMEMLLKEQCGAPLAE,not soluble
